Experimental data taken from patent US20130224191A1, “NOTUM PROTEIN MODULATORS AND METHODS OF USE” (priority 2010, published 2013).

B1: hSC2.D2.2 (antibody, human IgG1, V domains shown)
VH: EVQLVESGGGLVQPGGSLRLSCAASGFTFSSYGMNWVRQAPGKGLEWVSYISSSTVTTYYADSVKGRFTISRDNAKNSLYLQMNSLRDEDTAVYYCSRQNWDGGYFDVWGAGTTVTVSS
VL: DIVMTQSPLSLPVTPGEPASISCRASKSVSSSGYSYMHWYLQKPGQSPQLLIYLASNLESGVPDRFSGSGSGTDFTLKISRVEAEDVGVYYCQHSRALPLTFGAGTKLELKR
notes: Humanized variable regions cloned into vectors with human IgG1 and kappa constant regions; also called humanized SC2.D2.2
B2: hNotum-Fc: recombinant human Notum fused to human IgG2 Fc, SEQ ID NO: 333 (protein)
chain: MYRMQLLSCIALSLALVTNSSEGRKTWRRRGQQPPPPPRTEAAPAAGQPVESFPLDFTAVEGNMDSFMAQVKSLAQSLYPCSAQQLNEDLRLHLLLNTSVTCNDGSPAGYYLKESRGSRRWLLFLEGGWYCFNRENCDSRYDTMRRLMSSRDWPRTRTGTGILSSQPEENPYWWNANMVFIPYCSSDVWSGASSKSEKNEYAFMGALIIQEVVRELLGRGLSGAKVLLLAGSSAGGTGVLLNVDRVAEQLEKLGYPAIQVRGLADSGWFLDNKQYRHTDCVDTITCAPTEAIRRGIRYWNGVVPERCRRQFQEGEEWNCFFGYKVYPTLRCPVFVVQWLFDEAQLTVDNVHLTGQPVQEGLRLYIQNLGRELRHTLKDVPASFAPACLSHEIIIRSHWTDVQVKGTSLPRALHCWDRSLHDSHKASKTPLKGCPVHLVDSCPWPHCNPSCPTVRDQFTGQEMNVAQFLMHMGFDMQTVAQPQGLEPSELLGMLSNGSISAMVRSVECPPCPAPPVAGPSVFLFPPKPKDTLMISRTPEVTCVVVDVSHEDPEVQFNWYVDGVEVHNAKTKPREEQFNSTFRVVSVLTVVHQDWLNGKEYKCKVSNKGLPAPIEKTISKTKGQPREPQVYTLPPSREEMTKNQVSLTCLVKGFYPSDIAVEWESNGQPENNYKTTPPMLDSDGSFFLYSKLTVDKSRWQQGNVFSCSVMHEALHNHYTQKSLSLSPGK

Assays:
Notum [1] = molecular target: T1, Notum (Homo sapiens, UniProt Q6P988); test: ELISA, fixed antibody against serial dilutions of antigen; format: binding
T1 sequence (Q6P988 20-496): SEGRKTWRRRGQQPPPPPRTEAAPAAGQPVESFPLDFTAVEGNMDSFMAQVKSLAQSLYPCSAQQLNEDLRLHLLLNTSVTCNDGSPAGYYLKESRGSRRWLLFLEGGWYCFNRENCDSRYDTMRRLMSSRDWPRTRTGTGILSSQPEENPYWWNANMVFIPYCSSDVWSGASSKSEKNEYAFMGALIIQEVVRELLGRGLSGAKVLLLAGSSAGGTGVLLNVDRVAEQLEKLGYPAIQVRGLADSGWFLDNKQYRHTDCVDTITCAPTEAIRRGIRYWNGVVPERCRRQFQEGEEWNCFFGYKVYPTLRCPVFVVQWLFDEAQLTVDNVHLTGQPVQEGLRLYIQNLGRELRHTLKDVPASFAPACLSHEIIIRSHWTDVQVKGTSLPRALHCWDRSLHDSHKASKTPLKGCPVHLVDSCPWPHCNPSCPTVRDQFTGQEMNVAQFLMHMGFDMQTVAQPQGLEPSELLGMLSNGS
Experimental: (§1) Three methods were used to characterize the affinity of humanized SC2.D2.2 relative to its analogous mAb with the murine variable region. First, binding signal was measured for a fixed amount of antibody probed against serial dilutions of antigen in an ELISA format. […] Second, the affinity of murine SC2.D2.2 was measured by Biacore using surface plasmon resonance (SPR) to provide the results set forth in FIG. 32A. Based on a concentration series of 12.5, 6.25, 3.125, 1.5625, 0.78125 nM and using a 1:1 Langmuir binding model, the Kd of the antibody binding to antigen was estimated to be less than 0.1 nM. Long off-rates for this interaction made accurate determination of affinity through kinetics difficult. The murine antibody was then directly compared to the humanized derivative using bio-layer interferometry analysis on a ForteBIO RED (ForteBIO, Inc.) with a concentration series of 250, 125, and 62.5 nM antigen.

Notum [2] = molecular target: T1, Notum; test: Bio-layer interferometry on ForteBIO RED; format: binding; conditions: 250, 125 and 62.5 nM antigen
Experimental: as §1

[3] = molecular target: T2, human Notum (recombinant or endogenous; construct not specified at the place of use) (human, UniProt Q6P988 20-496); test: bio-layer interferometry (ForteBIO RED), fixed antibody, antigen at 250, 125 and 62.5 nM by the text
T2 construct: also called hNotum; human Notum protein
T2 sequence: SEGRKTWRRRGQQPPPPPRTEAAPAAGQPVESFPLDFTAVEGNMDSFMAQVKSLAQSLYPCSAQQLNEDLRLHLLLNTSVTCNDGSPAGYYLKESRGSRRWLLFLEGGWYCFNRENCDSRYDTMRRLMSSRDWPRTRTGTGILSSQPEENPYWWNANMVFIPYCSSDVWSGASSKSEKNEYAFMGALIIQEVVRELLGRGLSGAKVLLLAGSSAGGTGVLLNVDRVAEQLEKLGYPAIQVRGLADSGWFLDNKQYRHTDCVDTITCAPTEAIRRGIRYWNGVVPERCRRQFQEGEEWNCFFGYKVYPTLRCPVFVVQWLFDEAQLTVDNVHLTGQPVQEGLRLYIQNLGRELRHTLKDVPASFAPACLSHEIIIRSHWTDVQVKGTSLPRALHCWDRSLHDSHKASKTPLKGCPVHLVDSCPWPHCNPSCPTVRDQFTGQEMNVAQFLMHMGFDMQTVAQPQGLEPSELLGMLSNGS
Experimental: Three methods were used to characterize the affinity of humanized SC2.D2.2 relative to its analogous mAb with the murine variable region. First, binding signal was measured for a fixed amount of antibody probed against serial dilutions of antigen in an ELISA format. Measured signal levels were substantially similar (data not shown). Second, the affinity of murine SC2.D2.2 was measured by Biacore using surface plasmon resonance (SPR) to provide the results set forth in FIG. 32A. […] Long off-rates for this interaction made accurate determination of affinity through kinetics difficult. The murine antibody was then directly compared to the humanized derivative using bio-layer interferometry analysis on a ForteBIO RED (ForteBIO, Inc.) with a concentration series of 250, 125, and 62.5 nM antigen.

[4] = system: mouse lineage-depleted NTX tumor cells from SCRx-CR4; test: Cell survival/proliferation, CellTiterGlo, SCRx-CR4; format: cell-based, human; conditions: 1 or 10 μg/mL, 14 days
Experimental: To determine whether Notum protein impacts cell proliferation and/or apoptosis of human colorectal cancer cells, HCT-116 cells or mouse lineage-depleted NTX tumor cells (i.e. human tumor cells) were plated as described below and exposed to recombinant hNotum (e.g. hNotum-His or hNotum-hFc) and anti-Notum antibodies. Cell numbers were then assessed 12-14 days later.
Cells were then incubated for 14 days at 37° C., 5% CO2 and 5% O2 and the number of viable cells was assessed using Promega's CellTiterGlo assay kit per the manufacturer's instructions. For the HCT-116 cell line (a commercially available colorectal tumor cell line), cells were plated at 2,000 cells per well in DMEM+1% FBS, followed 24-hours later by the addition of serum free DMEM containing recombinant human Notum in the presence or absence of monoclonal antibodies SC2.D2.2 or SC2.10B3. HCT-116 cells were then incubated for 12 days at 37° C., 5% CO2 and cell viability was assessed with Promega's CellTiterGlo assay kit. Higher readings are indicative of higher viable cell counts.

rhWnt3A = molecular target: T3, rhWnt3A (Homo sapiens, UniProt P56704); test: Triton X114 partition assay, delipidation of rhWnt3A by Notum; format: biochemical; conditions: overnight incubation
T3 construct: purchased R & D Systems
Description: If Notum directly acts upon Wnt3A to delipidate the protein, this cleavage should result in a change in the hydrophobicity of the protein, which can be measured by a change in its partitioning behavior between aqueous and detergent phases in a Triton X114 partition assay (Bordier, 1981, PMID: 6257680): lipidated Wnt3A will be found in the […], whereas delipidated Wnt3A should show up in the […] (Willert et al., 2003, PMID: 12717451). […] An equal volume of 4.5% Triton X114 was added to the mixture, the mixture incubated on ice for 5 minutes, then at 37° C. for five minutes, before separating the phases using centrifugation at 2000×g for five minutes at room temperature. Following separation each sample was adjusted to normalize the ionic strength and Triton X114 content before analyzing the aliquots by PAGE electrophoresis. After running the gel the protein bands were transferred to a membrane for immunoblotting using an anti-rhWnt3A antibody (Cell Signaling Technology). Bands were visualized using SuperSignal West Pico Chemiluminescent substrate (Thermo Fisher Scientific).

[5] = system: Wnt3A-mediated induction of luciferase in the 293.TCF cells; test: Wnt3A canonical signaling assay, bioactivity of Notum constructs; format: cell-based, human
Description: To generate a stable population of cells that contain a reporter for the activation of canonical Wnt signaling, HEK 293T cells were transduced with a lentiviral vector, pGreenFirel-TCF (System Biosciences) which encodes a bifunctional GFP and luciferase reporter cassette under the control of a minimal CMV reporter linked to four tandem repeats of the transcriptional response elements for TCF. Transduced cells populations, termed 293.TCF cells, were subsequently used in a Wnt3A canonical signaling assay as follows: 2.5×10^4 293.TCF cells were plated per well of a 96-well tissue culture plate in 50 μL of serum-free DME medium. After 24 hours of serum starvation, 25 μL of various dilutions of conditioned medium (CM) from L/Wnt3A cells (ATCC CRL-2647; Willert, 2003) or undiluted CM from parental L-cells (ATCC CRL-2648) along with 25 μL of DMEM+0.2% FBS were added to each well. Eighteen hours after addition of CM, 100 μL of One-Glo solution (ProMega Corp.) was added to each well. The contents of each well were then mixed thoroughly to lyse the cells, 100 μL of lysate transferred to black 96-well plates, and the luminescence in each well read after 5 mins using a Wallac Victor3 Multilabel Counter (Perkin-Elmer Corp). […] More particularly, as the Wnt3A+ CM media is diluted from 25% down to approximately 3%, activation of the Wnt pathway is reduced with a corresponding decrease in luminescence.
Once the luciferase reporter system was established, assays for determining the bioactivity of various Notum modulators were performed as follows. 2.5×10^4 293.TCF cells were plated per well of a 96-well tissue culture plate in 50 μL of serum-free medium. After 23 hours of serum starvation, 25 μL of DMEM+0.2% FBS containing various Notum modulators at various concentrations (e.g., hNotum-His, hNotum-hFc, hNotum-S232A-His, murine Notum-His, murine Notum-hFc, macaque Notum-hFc, control protein-His or control protein-hFc obtained as per Examples 7, 8 and 13 above), were added to the cells. After 1 hour, 25 μL of Wnt3A or control L-cell CM were added to each well. Eighteen hours after addition of CM, 100 μL of One-Glo solution (ProMega Corp.) was added to each well, the contents of each well mixed thoroughly to lyse the cells, 100 μL of lysate transferred to black 96-well plates, and the luminescence read after 5 minutes.

T3 sequence (P56704 19-352): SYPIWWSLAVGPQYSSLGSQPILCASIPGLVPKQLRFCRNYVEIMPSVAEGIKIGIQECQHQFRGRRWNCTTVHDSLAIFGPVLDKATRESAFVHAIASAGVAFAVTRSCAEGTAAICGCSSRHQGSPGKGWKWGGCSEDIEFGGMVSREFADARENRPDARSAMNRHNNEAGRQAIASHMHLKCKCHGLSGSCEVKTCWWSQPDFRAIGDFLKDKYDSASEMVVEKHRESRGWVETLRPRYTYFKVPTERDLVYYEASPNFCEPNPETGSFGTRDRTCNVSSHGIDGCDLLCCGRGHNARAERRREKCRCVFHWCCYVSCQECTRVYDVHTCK

Molecule | binding signal relative to antibody with murine variable region (Notum [1]) | affinity, binding curves (Notum [2]) | binding result [3] | increase in cell counts [4] | redistribution of rhWnt3A between Triton X114 and aqueous phase (rhWnt3A) | antagonism of Wnt3A-mediated induction of luciferase [5]
B1 | substantially similar | excellent affinity | binds |  |  | 
B2 |  |  |  | 20-45% | leads to a redistribution of the rhWnt3A into the aqueous phase | functionally antagonize
